Experiment [1] addresses 38C13 IgM Id. As to the kind of experiment: ELISA control without serum, antigen 38C13 IgM Id. For orientation: ELISA stands for enzyme-linked immunosorbent assay.
The target of experiment [2] is Maltose Binding Protein (MBP) (E. coli) [MBP: P0AEX9]. As to the kind of experiment: ELISA control without serum, antigen MBP.
Experiment [3] deals with MBP-ABL (E. coli) [MBP: P0AEX9]. The experiment is described as follows: ELISA control without serum, antigen MBP-ABL.

As to Secondary Ab only (antibody), the ELISA reading in experiment [1] turned out to be 0.09; in experiment [2], 0.055; in experiment [3] it was 0.052.

Values taken from patent publication US20080107662A1.
